Ends that are not written are not given here.
How the values were obtained:
Experiment in all cases: cell-based or functional assay
[1] = target: human FGFR1c + KLB receptor complex on HEK293 iLite FGF21 reporter cells (human) (UniProt P11362)
[2] = target: human glucagon receptor (human) (UniProt P47871)
[3] = target: human GLP-1 receptor (human) (UniProt P43220)
[4] = target: human GIP receptor (human) (UniProt P48546)
human GIP receptor (human), sequence (P48546 22-466): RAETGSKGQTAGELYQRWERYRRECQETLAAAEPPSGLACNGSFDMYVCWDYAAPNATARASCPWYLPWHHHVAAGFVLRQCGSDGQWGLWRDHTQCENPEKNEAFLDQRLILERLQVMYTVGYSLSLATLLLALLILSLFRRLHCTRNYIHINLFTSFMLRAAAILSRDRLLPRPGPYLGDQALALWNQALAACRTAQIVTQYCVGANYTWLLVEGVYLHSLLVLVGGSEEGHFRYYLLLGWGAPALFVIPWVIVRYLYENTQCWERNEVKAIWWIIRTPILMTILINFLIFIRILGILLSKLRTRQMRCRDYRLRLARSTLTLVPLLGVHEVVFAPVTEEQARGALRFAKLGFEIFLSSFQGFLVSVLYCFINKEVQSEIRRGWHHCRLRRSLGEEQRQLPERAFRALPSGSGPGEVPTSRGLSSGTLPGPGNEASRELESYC

human GLP-1 receptor (human), sequence (P43220 24-463): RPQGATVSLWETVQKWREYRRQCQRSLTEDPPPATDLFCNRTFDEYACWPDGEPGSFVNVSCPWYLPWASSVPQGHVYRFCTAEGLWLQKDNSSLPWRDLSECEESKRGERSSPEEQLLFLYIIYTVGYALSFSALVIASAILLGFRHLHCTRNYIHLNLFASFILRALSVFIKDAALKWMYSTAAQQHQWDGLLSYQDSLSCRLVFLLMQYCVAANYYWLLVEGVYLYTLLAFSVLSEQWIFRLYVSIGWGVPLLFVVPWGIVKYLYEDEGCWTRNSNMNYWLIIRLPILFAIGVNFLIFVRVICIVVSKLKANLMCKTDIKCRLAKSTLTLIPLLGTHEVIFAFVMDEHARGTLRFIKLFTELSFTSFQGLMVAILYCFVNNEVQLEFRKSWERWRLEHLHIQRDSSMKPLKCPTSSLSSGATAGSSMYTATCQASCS
human glucagon receptor (human), sequence (P47871 26-477): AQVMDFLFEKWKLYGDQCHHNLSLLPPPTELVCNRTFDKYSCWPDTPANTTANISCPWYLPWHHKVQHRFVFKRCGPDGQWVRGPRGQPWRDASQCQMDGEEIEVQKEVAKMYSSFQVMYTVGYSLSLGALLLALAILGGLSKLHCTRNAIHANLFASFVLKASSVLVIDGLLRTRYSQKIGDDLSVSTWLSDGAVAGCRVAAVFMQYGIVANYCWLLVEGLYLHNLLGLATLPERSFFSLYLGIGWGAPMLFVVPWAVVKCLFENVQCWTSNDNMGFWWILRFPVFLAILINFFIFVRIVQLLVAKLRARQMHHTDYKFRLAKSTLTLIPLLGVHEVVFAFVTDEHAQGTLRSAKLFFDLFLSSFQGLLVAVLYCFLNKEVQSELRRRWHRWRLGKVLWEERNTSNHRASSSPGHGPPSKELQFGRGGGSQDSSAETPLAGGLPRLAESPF
human FGFR1c + KLB receptor complex on HEK293 iLite FGF21 reporter cells (human), sequence (P11362 22-822, chain 1 of 2): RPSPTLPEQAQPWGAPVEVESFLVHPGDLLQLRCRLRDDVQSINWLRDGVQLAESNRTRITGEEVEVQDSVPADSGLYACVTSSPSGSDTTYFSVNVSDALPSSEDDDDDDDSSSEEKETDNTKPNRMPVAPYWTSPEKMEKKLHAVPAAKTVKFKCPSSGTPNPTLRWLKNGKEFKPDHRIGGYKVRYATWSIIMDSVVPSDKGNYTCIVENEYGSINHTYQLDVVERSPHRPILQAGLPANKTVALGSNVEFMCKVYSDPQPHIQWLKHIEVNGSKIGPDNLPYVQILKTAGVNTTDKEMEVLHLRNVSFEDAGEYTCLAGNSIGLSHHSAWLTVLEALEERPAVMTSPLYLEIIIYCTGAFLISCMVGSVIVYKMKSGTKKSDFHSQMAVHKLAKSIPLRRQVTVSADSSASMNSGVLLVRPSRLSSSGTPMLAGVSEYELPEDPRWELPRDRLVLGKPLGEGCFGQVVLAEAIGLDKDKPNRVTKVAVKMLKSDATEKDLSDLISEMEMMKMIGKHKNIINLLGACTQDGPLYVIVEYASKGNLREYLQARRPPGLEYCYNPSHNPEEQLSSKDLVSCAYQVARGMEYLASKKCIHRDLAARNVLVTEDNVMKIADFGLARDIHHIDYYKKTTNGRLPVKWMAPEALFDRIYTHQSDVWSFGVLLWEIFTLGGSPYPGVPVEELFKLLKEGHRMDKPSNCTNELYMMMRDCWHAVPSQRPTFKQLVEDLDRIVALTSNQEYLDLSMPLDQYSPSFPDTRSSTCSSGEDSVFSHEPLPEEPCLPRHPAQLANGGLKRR
human FGFR1c + KLB receptor complex on HEK293 iLite FGF21 reporter cells (human), sequence (Q86Z14 whole entry, chain 2 of 2, further chain): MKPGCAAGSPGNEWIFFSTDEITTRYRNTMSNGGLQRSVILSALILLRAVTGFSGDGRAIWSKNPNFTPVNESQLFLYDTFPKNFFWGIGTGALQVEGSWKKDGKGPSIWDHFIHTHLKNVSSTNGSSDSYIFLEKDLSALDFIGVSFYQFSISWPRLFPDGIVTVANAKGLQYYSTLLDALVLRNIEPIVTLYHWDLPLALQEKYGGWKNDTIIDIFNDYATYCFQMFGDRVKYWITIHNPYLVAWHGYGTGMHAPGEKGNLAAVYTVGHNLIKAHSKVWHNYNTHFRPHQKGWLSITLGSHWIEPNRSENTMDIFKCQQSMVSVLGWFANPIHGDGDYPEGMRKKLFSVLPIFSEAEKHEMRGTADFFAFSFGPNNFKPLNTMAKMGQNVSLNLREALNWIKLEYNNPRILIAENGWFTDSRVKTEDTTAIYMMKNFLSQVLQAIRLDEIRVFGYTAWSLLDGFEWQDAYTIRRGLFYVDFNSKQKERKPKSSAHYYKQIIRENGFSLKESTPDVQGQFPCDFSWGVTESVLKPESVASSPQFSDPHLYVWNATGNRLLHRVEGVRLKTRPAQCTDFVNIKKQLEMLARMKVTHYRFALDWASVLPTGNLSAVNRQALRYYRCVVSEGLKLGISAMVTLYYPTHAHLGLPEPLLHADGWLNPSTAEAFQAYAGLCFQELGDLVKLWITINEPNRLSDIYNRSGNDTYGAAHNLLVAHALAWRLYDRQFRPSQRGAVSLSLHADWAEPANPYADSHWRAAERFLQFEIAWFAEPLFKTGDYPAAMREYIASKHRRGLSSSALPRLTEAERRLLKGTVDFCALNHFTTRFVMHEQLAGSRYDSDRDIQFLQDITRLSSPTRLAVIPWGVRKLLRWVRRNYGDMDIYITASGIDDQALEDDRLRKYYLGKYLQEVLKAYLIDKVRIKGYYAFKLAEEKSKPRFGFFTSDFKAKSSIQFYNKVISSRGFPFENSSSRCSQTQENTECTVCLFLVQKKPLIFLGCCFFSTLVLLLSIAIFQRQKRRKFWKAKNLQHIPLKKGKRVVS

B1: Ab0370 (antibody, IgG4, V domains shown)
VH: QVTLKESGPVLVKPTETLTLTCTVSGFSLNNARVGVSWIRQPPGKALEWLAWIFSNDEKSYSTSLKSRLTISKDTSKSQVVLTMTNMDPVDTATYYCARSVVTGGYYYEGMDVWGQGTTVTVSS
VL: SYVLTQPPSVSVAPGQTARITCGGNNIGSESVHWYQQKPGQAPVLVVDDSDRPSGIPERFSGSNSGNTATLTISRVEAGDEADYYCQVHDGNSDHVVFGGGTKLTVLG
EC50 [1]: > 100 nM | Emax [1]: 490%

B2: P013 (peptide)
peptide: GHGEGTFTSDLSKQLEEEAVRLFIEWLKAGGPKKIRYS-NH2
HTRF cAMP EC50 [2]: > 10 nM | HTRF cAMP EC50 [3]: 0.0099 nM | HTRF cAMP EC50 [4]: > 10 nM

B3: P010 (peptide)
peptide: HGEGTFTSDLSKQLEEEAVQLFIEWLLATGPSSGAPPPS-NH2
HTRF cAMP EC50 [3]: 0.0035 nM

B4: P014 (peptide)
peptide: GHGEGTFTSDKSKQLEEEAVRLFIEWLKAGGPKKIRYS-NH2
HTRF cAMP EC50 [2]: 5.4 nM | HTRF cAMP EC50 [3]: 0.0105 nM | HTRF cAMP EC50 [4]: > 10 nM

B5: P021 (peptide)
peptide: GHGEGTFTSDKSKQLEEEAVRLFIEWLKAGGPSSGAPPPS-NH2
HTRF cAMP EC50 [2]: > 10 nM | HTRF cAMP EC50 [3]: 0.0276 nM | HTRF cAMP EC50 [4]: > 10 nM

B6: P008 (peptide)
peptide: HGEGTFTSDLSKQLEEERVQLFIEWLKATGPSSGAPPPS-NH2
HTRF cAMP EC50 [2]: > 10 nM | HTRF cAMP EC50 [3]: 0.0232 nM | HTRF cAMP EC50 [4]: > 10 nM

B7: P019 (peptide)
peptide: GHGEGTFTSDLSIQLEEEAVRLFIEWLLAGGPSSGAPPPS-NH2
HTRF cAMP EC50 [3]: 0.0276 nM

B8: P017 (peptide)
peptide: GHGEGTFTSDLSKQLEEEAVRLFIEWLKAGGPSSGAPPPS-NH2
HTRF cAMP EC50 [2]: > 10 nM | HTRF cAMP EC50 [3]: 0.0085 nM | HTRF cAMP EC50 [4]: > 10 nM

B9: P020 (peptide)
peptide: GHGEGTFTSDLSIQLEEEAVRLFIEWLLATGPSSGAPPPS-NH2
HTRF cAMP EC50 [3]: 0.206 nM

Source: patent US20220010021A1
